# Molecular target: Hepatitis C virus p7 protein from genotype 5a (EUH1480 strain) (Hepatitis C virus genotype 5a (EUH1480 strain))
# Experiment: SEC
substance,measurement,value
Hepatitis C virus p7 protein from genotype 5a (EUH1480 strain) (natural protein),stoichiometry N,6
